The test system of the series is Escherichia coli TOP10. As to the kind of experiment: shrunken log2 fold change of peptide-encoding DNA abundance (4.5 h post-induction vs induction); higher = less antimicrobial activity (less host growth inhibition). Particulars: time post-induction: 4.5 h; library: site-saturation at positions 5, 18, 19, 20.
Turning to RRIRTRPPRLPRPRPRPPQDPRP, the “shrunken log2 fold change” value is 0.608.
In the case of RRIRWRPPRLPRPRPRPTDGPRP it was 0.32; in that of RRIRYRPPRLPRPRPRPETYPRP, -0.372; in that of RRIRCRPPRLPRPRPRPFKNPRP, -0.967.
In the case of RRIRPRPPRLPRPRPRPQPRPRP, the “shrunken log2 fold change” value is 0.603.
As for RRIRMRPPRLPRPRPRPHMNPRP, the “shrunken log2 fold change” value was -0.0129.
In the case of RRIRKRPPRLPRPRPRPAGDPRP, the “shrunken log2 fold change” value was 0.646.
In the case of RRIRNRPPRLPRPRPRPCIVPRP it was 0.045; in that of RRIRARPPRLPRPRPRPTQHPRP, 0.698.
In the case of RRIRWRPPRLPRPRPRPQLNPRP it was 0.679.
In the case of RRIRCRPPRLPRPRPRPAWNPRP it was 0.035; in that of RRIRCRPPRLPRPRPRPDRTPRP, 0.0438.
Regarding RRIRWRPPRLPRPRPRPGFWPRP, the “shrunken log2 fold change” value was 0.494.
In the case of RRIRARPPRLPRPRPRPLDYPRP it was -0.25.
Under RRIRTRPPRLPRPRPRPPQIPRP stands 0.16; under RRIRWRPPRLPRPRPRPMSWPRP, 0.0971.
Under RRIRNRPPRLPRPRPRPKLWPRP stands -0.0235.
With RRIRHRPPRLPRPRPRPVWTPRP, the “shrunken log2 fold change” value is -0.225.
Under RRIRRRPPRLPRPRPRPGQYPRP stands -0.16; under RRIRVRPPRLPRPRPRPFNQPRP, -0.19.
In the case of RRIRRRPPRLPRPRPRPIHMPRP it was -0.206; in that of RRIRVRPPRLPRPRPRPNTFPRP, -0.521.
Under RRIRKRPPRLPRPRPRPPGGPRP stands 0.811; under RRIRFRPPRLPRPRPRPADQPRP, -0.144; under RRIRARPPRLPRPRPRPEPEPRP, 0.967.
On to RRIRYRPPRLPRPRPRPYRKPRP, for which the “shrunken log2 fold change” value is -0.178.
In the case of RRIRLRPPRLPRPRPRPLPTPRP it was 0.293.
As to RRIRVRPPRLPRPRPRPQAEPRP, the “shrunken log2 fold change” value stood at 0.352.
As to RRIRFRPPRLPRPRPRPAECPRP, the “shrunken log2 fold change” value was -0.16.
Under RRIRHRPPRLPRPRPRPNGPPRP stands -0.0992; under RRIRQRPPRLPRPRPRPQQVPRP, -0.0545.
Under RRIRRRPPRLPRPRPRPGWAPRP stands 0.573; under RRIRHRPPRLPRPRPRPFPDPRP, 0.0592; under RRIRNRPPRLPRPRPRPQILPRP, -0.265.
For RRIRHRPPRLPRPRPRPFRWPRP, the “shrunken log2 fold change” value was 0.137.
Take RRIRARPPRLPRPRPRPRKLPRP: the “shrunken log2 fold change” value was found to be 0.424.
Under RRIRTRPPRLPRPRPRPRTTPRP stands 0.419; under RRIRIRPPRLPRPRPRPAHRPRP, -0.133.
Under RRIRYRPPRLPRPRPRPPPGPRP stands 0.909.
Under RRIRQRPPRLPRPRPRPELWPRP stands 0.27; under RRIRQRPPRLPRPRPRPGLCPRP, -0.0449; under RRIRLRPPRLPRPRPRPNGCPRP, 0.00888.
Regarding RRIRDRPPRLPRPRPRPAPGPRP, the “shrunken log2 fold change” value was found to be 0.699.
In the case of RRIRFRPPRLPRPRPRPRDTPRP, the “shrunken log2 fold change” value was determined as 0.0411.
As for RRIRHRPPRLPRPRPRPTEDPRP, the “shrunken log2 fold change” value is -0.00383.
In the case of RRIRKRPPRLPRPRPRPMTMPRP it was -0.00185.
In the case of RRIRPRPPRLPRPRPRPKARPRP it was 0.691.
Under RRIRFRPPRLPRPRPRPLNDPRP stands -0.839.
Take RRIRDRPPRLPRPRPRPAANPRP: the “shrunken log2 fold change” value came to 0.273.
Regarding RRIRCRPPRLPRPRPRPKWDPRP, the “shrunken log2 fold change” value was determined as 0.13.
Consider RRIRRRPPRLPRPRPRPEQGPRP, for which the “shrunken log2 fold change” value stood at 0.0344.
Turning to RRIRRRPPRLPRPRPRPEDDPRP, the “shrunken log2 fold change” value was found to be 1.11.
As for RRIRKRPPRLPRPRPRPMLMPRP, the “shrunken log2 fold change” value came to 0.322.
Under RRIRCRPPRLPRPRPRPLVDPRP stands 1.58; under RRIRFRPPRLPRPRPRPCHLPRP, -0.0779.
Turning to RRIRKRPPRLPRPRPRPRRAPRP, the “shrunken log2 fold change” value stood at 0.9.
As for RRIRNRPPRLPRPRPRPPSFPRP, the “shrunken log2 fold change” value was -0.0746.
In the case of RRIRERPPRLPRPRPRPKKGPRP it was -0.438; in that of RRIRRRPPRLPRPRPRPICWPRP, 0.388; in that of RRIRHRPPRLPRPRPRPDVAPRP, -0.00146.
In the case of RRIRQRPPRLPRPRPRPAPQPRP it was 0.522; in that of RRIRYRPPRLPRPRPRPEGEPRP, 0.199.

The values above are taken from the supplement of paper PMC9112550, “Optimization of the antimicrobial peptide Bac7 by deep mutational scanning” (BMC Biology, 2022).
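Note: peptides expressed intracellularly from a pBAD plasmid library in pooled LB shake-flask culture, induced with 0.3% L-arabinose, DNA abundance read by NGS, three biological replicates, DESeq2 with apeglm shrinkage.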
